Patent US20190374506A1 (BETH ISREAL DEACONESS MEDICAL CENTER, published 2019)

Tests used:
[1] = biological target: T1, Flag-WWP1 (Homo sapiens (Human), UniProt Q9H0M0 1-922); assay: recombinant Flag-WWP1 incubated with immunopurified recombinant NEDD4-1, western blot (FIG. 2C)
T1 construct: also called full-length Flag-WWP1; recombinant Flag-WWP1; not shown: Flag tag
Procedure: FIG. 2C is a Western blot showing that WWP1 binds NEDD4-1 in vitro. Recombinant Flag-WWP1 were incubated with immunopurified recombinant NEDD4-1, and then analysed by western blot.

[2] = biological target: T2, WW domain containing E3 ubiquitin protein ligase 1 (WWP1) (human, UniProt Q9H0M0 1-922, limits assumed); assay: anti-PTEN immunoprecipitation from DU145 cells, western blot (FIG. 2B); both ligases found in the same complex
T2 construct: also called endogenous WWP1; WW domain-containing protein-1

[3] = biological target: T3, Phosphatase And Tensin Homolog Deleted On Chromosome Ten (PTEN) (human, UniProt P60484 1-403); assay: co-immunoprecipitation with anti-NEDD4 antibody from PWRE-1 cell lysates after 16 h normoxia (N) or hypoxia (H), western blot
T3 construct: also called endogenous PTEN; PTEN WT
Procedure: FIG. 13D is a Western blot showing that NEDD4-1 switches its interaction proteins under different physiological conditions. PWRE-1 cells were cultured in normoxic or hypoxic conditions for 16 hours. Total cell lysates were immunoprecipitated with anti-NEDD4 antibody, and then examined by western blot with indicated antibodies.
(§1) Western Blotting and Immunoprecipitation. For western blotting, cells were lysed in RIPA buffer (Boston BioProducts) supplemented with protease (Roche) and phosphatase (Roche) inhibitor. Proteins were separated on NuPAGE 4-12% Bis-Tris gradient gels (Invitrogen), transferred to polyvinylidine difluoride membranes (Immobilon P, Millipore) and the blots were probed with the indicated antibodies. For immunoprecipitation, PC3, 293T and MEF cells were transfected with the indicated expression vectors by using LIPOFECTAMIN 2000 (Life Technologies). 24 hours after transfection, cells were lysed in RIPA buffer with protease (Roche) and phosphatase (Roche) inhibitor. 500 μg of total lysates were pre-cleared for 30 minutes at 4° C., and then immunoprecipitated with anti-Myc (Cell Signaling Technology 9B11, 1:500), or anti-PTEN (Cell Signaling Technology 9559, 1:500) antibody overnight at 4° C. The Protein-A or Protein-G sepharose beads (GE Healthcare) were then added and incubated for another 2 hours. The immunoprecipitates were washed with RIPA buffer three times. […]

[4] = biological target: T2, WW domain containing E3 ubiquitin …; assay: immunoprecipitation of exogenous PTEN from DU145 cells, mass spectrometry (FIG. 2A)
Text: (§2) FIG. 2A is a Western blot. Lysates from DU145 cells transfected with HA-PTEN were immunoprecipitated with an anti-PTEN antibody followed by mass-spectrometric peptide sequencing. WWP1 and NEDD4-1 were identified.
(§3) In order to identify the E3 ligases that induce PTEN atypical K27-linked poly-ubiquitination, exogenous PTEN was immunoprecipitated from DU145 cells, followed by identification of the proteins that interacted with PTEN by mass spectrometry (FIG. 2A; FIG. 18).

[5] = biological target: T4, ATP dependent RNA helicase A (human (endogenous protein of DU145 …, UniProt Q08211)); assay: anti-PTEN immunoprecipitation from DU145 cells transfected with HA-PTEN, SDS-PAGE, mass-spectrometric peptide sequencing of the bands (association in the precipitate)
T4 construct: endogenous, identified by mass spectrometry
Text: as §2, §3

[6] = biological target: T5, Poly [ADP-ribose] polymerase 1 (human (endogenous protein of DU145 …, UniProt P09874)); assay: as above
T5 construct: endogenous, identified by mass spectrometry
Text: as §2, §3

[7] = biological target: Isoform 2 of Telomere-associated protein RIF1; assay: as above
Text: as §2, §3

[8] = biological target: T6, Sperm-associated antigen 5 (human (endogenous protein of DU145 …, UniProt Q96R06)); assay: as above
T6 construct: endogenous, identified by mass spectrometry
T6 sequence (looked up): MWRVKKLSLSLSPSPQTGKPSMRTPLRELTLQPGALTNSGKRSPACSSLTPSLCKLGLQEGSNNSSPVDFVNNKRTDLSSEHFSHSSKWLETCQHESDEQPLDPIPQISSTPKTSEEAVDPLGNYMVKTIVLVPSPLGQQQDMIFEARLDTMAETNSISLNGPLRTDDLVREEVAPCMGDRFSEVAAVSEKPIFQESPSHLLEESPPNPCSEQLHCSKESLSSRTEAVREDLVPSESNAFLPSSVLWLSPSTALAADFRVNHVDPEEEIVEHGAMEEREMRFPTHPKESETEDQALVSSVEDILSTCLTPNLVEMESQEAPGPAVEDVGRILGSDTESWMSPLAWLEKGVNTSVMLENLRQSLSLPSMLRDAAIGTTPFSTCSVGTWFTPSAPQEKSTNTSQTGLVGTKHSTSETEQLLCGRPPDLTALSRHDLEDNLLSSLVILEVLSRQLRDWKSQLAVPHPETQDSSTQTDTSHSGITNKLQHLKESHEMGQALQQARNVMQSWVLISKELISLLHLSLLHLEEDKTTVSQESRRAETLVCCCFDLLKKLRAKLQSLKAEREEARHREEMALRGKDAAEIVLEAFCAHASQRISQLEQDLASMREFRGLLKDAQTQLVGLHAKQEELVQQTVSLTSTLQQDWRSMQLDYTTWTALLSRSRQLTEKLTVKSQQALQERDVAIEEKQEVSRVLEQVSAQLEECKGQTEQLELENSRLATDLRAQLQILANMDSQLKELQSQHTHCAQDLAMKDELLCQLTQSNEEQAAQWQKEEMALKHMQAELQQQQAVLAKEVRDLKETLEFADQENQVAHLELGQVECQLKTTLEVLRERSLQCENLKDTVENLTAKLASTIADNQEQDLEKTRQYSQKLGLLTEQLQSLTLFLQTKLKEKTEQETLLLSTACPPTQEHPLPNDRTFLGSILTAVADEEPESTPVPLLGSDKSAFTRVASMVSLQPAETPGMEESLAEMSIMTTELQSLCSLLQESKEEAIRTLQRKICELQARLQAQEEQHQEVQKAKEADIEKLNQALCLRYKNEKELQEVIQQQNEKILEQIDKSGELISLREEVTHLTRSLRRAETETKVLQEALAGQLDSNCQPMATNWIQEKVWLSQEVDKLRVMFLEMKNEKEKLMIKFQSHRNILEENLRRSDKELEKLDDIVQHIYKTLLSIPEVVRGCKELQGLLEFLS
Text: as §2, §3

[9] = biological target: T1, Flag-WWP1; assay: reciprocal co-immunoprecipitation from 293 cells: IP HA / WB Flag and IP Flag / WB HA
[10] = biological target: T7, Flag-WWP1 ΔWW domain (deletion 341-547) (Homo sapiens (Human), UniProt Q9H0M0 1-922); assay: co-immunoprecipitation from 293 cells: IP Flag, WB PTEN
T7 construct: The two kept ranges are counted on the 922-residue WWP1 entry; not shown: Flag tag
T7 sequence: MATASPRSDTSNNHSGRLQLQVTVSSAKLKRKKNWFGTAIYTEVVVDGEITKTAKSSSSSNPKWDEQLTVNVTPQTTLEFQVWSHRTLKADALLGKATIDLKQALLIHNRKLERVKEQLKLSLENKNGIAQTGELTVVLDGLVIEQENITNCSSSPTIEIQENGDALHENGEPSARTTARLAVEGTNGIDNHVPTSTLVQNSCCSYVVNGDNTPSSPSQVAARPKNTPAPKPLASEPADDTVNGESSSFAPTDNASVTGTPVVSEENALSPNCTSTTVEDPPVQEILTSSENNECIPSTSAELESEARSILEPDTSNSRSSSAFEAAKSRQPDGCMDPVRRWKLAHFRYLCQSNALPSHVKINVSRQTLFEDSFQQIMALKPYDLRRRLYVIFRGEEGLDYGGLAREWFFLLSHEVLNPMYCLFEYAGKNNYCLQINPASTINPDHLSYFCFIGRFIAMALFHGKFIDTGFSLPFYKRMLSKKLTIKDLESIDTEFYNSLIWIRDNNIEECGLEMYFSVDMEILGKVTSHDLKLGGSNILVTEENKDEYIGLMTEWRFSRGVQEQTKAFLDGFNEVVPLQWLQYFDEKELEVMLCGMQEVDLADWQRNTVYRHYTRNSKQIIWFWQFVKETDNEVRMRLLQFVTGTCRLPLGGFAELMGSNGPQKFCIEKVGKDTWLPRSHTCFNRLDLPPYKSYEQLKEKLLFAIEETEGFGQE
Procedure: Lysates of 293 cells transfected with indicated constructs were analysed by immunoprecipitation and/or western blot with indicated antibodies.
as §1

[11] = biological target: T1, Flag-WWP1; assay: co-immunoprecipitation: IP Flag, WB PTEN

T5 sequence (P09874 2-1014 limits assumed): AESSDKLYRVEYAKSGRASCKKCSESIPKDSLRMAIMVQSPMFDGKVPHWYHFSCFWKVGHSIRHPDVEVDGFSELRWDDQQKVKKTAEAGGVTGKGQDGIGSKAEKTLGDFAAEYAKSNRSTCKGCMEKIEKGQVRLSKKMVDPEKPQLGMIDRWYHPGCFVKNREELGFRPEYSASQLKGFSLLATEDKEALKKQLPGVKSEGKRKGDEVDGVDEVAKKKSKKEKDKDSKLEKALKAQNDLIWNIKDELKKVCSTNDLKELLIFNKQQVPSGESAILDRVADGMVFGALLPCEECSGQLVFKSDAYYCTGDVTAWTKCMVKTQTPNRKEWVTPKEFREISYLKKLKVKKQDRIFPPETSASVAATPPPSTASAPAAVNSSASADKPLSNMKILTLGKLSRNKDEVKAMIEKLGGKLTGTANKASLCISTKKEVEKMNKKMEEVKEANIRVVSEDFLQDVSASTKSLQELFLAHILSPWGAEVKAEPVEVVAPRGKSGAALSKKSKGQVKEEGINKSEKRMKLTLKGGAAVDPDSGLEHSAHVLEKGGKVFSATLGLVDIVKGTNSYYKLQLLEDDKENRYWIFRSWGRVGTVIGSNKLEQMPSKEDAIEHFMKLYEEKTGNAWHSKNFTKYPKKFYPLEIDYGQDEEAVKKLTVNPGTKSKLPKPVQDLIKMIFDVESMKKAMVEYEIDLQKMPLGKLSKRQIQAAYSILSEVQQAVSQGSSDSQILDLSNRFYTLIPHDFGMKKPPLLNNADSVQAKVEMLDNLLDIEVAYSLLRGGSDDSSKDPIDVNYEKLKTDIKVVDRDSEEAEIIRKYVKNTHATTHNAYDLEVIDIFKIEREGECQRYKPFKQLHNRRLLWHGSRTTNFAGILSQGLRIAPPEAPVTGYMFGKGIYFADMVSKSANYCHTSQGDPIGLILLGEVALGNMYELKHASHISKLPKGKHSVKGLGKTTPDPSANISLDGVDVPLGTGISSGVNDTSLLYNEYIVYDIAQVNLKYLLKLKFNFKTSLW
T4 sequence (Q08211 whole entry): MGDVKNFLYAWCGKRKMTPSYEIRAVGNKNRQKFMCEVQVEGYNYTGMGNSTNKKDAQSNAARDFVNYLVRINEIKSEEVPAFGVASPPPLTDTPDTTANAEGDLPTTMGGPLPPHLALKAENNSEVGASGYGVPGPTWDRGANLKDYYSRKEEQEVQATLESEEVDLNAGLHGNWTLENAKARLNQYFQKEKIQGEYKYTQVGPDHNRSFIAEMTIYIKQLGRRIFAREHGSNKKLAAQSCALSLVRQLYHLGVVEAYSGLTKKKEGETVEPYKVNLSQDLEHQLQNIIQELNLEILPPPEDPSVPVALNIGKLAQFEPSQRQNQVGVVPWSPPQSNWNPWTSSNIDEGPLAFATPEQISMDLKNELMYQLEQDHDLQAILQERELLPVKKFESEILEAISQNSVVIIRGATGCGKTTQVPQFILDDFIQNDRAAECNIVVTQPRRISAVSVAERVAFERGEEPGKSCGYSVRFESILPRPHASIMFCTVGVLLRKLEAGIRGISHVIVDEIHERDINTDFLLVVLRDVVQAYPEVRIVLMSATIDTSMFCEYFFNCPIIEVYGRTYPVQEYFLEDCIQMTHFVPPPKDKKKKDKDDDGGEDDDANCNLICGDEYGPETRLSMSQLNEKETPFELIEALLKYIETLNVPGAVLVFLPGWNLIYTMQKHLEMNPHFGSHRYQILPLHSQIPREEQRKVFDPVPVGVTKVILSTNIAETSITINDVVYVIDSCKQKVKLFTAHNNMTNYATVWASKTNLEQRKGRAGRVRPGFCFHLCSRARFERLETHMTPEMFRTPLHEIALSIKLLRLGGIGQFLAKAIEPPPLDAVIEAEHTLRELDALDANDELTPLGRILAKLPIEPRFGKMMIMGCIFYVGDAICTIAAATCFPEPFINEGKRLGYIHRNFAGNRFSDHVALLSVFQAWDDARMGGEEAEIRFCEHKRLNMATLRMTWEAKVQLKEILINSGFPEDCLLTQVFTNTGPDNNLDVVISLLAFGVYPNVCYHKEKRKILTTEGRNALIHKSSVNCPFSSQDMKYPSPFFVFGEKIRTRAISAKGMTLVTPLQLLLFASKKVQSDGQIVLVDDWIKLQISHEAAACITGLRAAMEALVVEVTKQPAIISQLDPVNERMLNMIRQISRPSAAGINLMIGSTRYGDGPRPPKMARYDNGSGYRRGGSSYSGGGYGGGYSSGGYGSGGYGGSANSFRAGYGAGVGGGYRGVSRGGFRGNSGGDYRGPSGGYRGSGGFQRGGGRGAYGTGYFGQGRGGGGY
Chain of Isoform 2 of Telomere-associated protein RIF1 (chain, as listed by the source limits assumed): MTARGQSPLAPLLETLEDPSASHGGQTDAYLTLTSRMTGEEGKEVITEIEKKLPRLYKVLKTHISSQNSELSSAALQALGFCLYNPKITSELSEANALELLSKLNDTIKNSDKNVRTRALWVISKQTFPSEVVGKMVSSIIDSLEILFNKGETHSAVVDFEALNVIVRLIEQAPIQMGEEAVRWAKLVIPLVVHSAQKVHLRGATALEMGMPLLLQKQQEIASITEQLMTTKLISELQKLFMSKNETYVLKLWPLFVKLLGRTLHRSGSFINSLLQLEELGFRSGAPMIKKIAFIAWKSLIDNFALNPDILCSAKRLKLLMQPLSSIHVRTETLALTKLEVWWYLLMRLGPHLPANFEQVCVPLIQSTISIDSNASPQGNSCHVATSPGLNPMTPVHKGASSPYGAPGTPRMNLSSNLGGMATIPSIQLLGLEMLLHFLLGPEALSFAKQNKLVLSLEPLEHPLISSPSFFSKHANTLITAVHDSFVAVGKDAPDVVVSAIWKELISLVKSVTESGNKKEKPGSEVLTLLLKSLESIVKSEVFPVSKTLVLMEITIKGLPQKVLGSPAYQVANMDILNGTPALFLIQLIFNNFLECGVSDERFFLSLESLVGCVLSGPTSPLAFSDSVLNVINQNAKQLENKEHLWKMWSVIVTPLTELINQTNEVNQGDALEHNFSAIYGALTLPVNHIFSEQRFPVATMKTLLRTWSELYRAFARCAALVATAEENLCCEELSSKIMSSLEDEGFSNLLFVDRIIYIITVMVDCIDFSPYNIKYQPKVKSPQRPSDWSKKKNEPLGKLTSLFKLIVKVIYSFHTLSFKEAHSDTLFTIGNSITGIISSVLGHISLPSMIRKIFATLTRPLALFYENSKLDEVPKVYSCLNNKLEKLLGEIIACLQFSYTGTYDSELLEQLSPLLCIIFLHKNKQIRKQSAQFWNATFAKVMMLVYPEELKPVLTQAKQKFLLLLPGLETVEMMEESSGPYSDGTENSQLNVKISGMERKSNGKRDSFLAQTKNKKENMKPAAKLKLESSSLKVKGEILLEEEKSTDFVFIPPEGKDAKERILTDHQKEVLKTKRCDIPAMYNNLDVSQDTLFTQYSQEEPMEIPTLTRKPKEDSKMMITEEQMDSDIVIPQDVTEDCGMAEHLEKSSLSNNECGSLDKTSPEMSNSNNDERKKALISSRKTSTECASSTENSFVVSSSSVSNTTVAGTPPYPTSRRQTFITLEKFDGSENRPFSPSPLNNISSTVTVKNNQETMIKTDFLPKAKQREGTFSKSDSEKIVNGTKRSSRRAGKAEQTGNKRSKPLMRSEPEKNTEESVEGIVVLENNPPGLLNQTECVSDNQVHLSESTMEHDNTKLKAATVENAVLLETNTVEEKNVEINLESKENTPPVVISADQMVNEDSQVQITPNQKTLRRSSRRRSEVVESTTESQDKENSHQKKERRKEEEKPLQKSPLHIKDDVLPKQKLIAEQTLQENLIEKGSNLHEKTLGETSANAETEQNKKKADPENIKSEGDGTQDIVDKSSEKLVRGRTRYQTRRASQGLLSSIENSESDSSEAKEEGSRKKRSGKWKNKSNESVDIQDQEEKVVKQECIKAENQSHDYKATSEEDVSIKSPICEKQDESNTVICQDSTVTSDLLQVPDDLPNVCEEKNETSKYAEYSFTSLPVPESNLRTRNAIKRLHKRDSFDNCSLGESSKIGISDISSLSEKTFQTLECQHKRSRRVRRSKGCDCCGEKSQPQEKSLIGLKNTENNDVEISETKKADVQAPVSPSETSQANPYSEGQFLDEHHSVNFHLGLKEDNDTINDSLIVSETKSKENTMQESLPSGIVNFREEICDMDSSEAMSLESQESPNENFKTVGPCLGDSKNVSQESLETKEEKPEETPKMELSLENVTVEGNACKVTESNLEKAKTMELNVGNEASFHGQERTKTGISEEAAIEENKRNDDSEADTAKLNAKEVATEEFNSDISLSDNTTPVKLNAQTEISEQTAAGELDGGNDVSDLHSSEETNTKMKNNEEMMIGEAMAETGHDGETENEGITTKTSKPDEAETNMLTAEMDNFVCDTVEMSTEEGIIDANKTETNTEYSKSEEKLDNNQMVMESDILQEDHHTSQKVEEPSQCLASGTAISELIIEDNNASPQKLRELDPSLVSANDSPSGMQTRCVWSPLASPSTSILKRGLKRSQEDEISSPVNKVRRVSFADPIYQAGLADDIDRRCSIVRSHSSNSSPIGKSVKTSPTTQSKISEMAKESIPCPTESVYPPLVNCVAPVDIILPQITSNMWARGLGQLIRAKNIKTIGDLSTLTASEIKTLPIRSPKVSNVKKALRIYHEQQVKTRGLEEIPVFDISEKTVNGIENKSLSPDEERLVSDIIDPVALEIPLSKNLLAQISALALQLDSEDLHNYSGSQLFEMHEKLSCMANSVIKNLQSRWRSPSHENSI

B1: Neural Precursor Cell Expressed Developmentally Down-Regulated Protein 4 polypeptide (NEDD4-1) (enzyme)
chain: MATCAVEVFGLLEDEENSRIVRVRVIAGIGLAKKDILGASDPYVRVTLYDPMNGVLTSVQTKTIKKSLNPKWNEEILFRVHPQQHRLLFEVFDENRLTRDDFLGQVDVPLYPLPTENPRLERPYTFKDFVLHPRSHKSRVKGYLRLKMTYLPKTSGSEDDNAEQAEELEPGWVVLDQPDAACHLQQQQEPSPLPPGWEERQDILGRTYYVNHESRRTQWKRPTPQDNLTDAENGNIQLQAQRAFTTRRQISEETESVDNRESSENWEIIREDEATMYSNQAFPSPPPSSNLDVPTHLAEELNARLTIFGNSAVSQPASSSNHSSRRGSLQAYTFEEQPTLPVLLPTSSGLPPGWEEKQDERGRSYYVDHNSRTTTWTKPTVQATVETSQLTSSQSSAGPQSQASTSDSGQQVTQPSEIEQGFLPKGWEVRHAPNGRPFFIDHNTKTTTWEDPRLKIPAHLRGKTSLDTSNDLGPLPPGWEERTHTDGRIFYINHNIKRTQWEDPRLENVAITGPAVPYSRDYKRKYEFFRRKLKKQNDIPNKFEMKLRRATVLEDSYRRIMGVKRADFLKARLWIEFDGEKGLDYGGVAREWFFLISKEMFNPYYGLFEYSATDNYTLQINPNSGLCNEDHLSYFKFIGRVAGMAVYHGKLLDGFFIRPFYKMMLHKPITLHDMESVDSEYYNSLRWILENDPTELDLRFIIDEELFGQTHQHELKNGGSEIVVTNKNKKEYIYLVIQWRFVNRIQKQMAAFKEGFFELIPQDLIKIFDENELELLMCGLGDVDVNDWREHTKYKNGYSANHQVIQWFWKAVLMMDSEKRIRLLQFVTGTSRVPMNGFAELYGSNGPQSFTVEQWGTPEKLPRAHTCFNRLDLPPYESFEELWDKLQMAIENTQGFDGVD
notes: also called endogenous NEDD4-1; immunopurified recombinant NEDD4-1
B1: binds [1]; binds [2]; binds [3].

B2: HA-PTEN (enzyme)
chain: not shown
notes: Expressed in DU145 cells and immunoprecipitated with anti-PTEN antibody for mass spectrometry; also called exogenous PTEN; pcDNA3-HA-PTEN; not shown: HA tag
B2: binds [4]; binds [5]; binds [6]. B2: binds [7]; binds [8].

B3: N-terminal PTEN (1-187) (enzyme, not shown: small tags and cut ends)
chain: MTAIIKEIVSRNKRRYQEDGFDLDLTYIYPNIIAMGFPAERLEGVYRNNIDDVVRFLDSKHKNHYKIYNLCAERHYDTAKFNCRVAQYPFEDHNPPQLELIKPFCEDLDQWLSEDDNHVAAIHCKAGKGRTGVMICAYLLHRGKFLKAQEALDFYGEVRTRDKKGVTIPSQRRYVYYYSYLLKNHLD
B3: no binding [9].

B4: Myc-PTEN (enzyme)
chain: not shown
notes: also called pcDNA3-Myc-PTEN; not shown: Myc tag
B4: no binding [10].

B5: PTEN 4E mutant (enzyme)
chain: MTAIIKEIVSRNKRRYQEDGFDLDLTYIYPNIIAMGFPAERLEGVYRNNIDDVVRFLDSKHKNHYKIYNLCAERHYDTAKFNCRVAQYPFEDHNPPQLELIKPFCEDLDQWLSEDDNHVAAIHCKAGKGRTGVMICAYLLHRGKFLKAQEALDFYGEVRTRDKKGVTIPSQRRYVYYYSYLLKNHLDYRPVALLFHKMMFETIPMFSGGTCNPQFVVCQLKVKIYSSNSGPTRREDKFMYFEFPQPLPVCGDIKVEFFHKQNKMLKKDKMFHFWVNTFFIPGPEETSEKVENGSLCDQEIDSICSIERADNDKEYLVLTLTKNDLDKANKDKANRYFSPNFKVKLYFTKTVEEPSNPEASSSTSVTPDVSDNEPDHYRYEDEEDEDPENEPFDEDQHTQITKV
notes: also called pcDNA3-Myc-PTEN 4E; phosphomimetic 4E; not shown: Myc tag by the plasmid list
B5: no binding [11].
